# Like-named read-outs stand apart in the source and are kept apart here.
# B1: 315-L06C08 (bispecific antibody)
# chain: not shown
# heavy: QVQLVESGGGLVKPGGSLRLSCAASGFTFSDYYMSWIRQAPGKGLEWVSDISVSSSYTNYADSVKGRFTISRDNAKNSLYLQMNSLRAEDTAVYYCARLGGYRSFFSTDDGDSLDYWGQGTLVTVSSASTKGPSVFPLAPSSKSTSGGTAALGCLVKDYFPEPVTVSWNSGALTSGVHTFPAVLQSSGLYSLSSVVTVPSSSLGTQTYICNVNHKPSNTKVDKRVEPKSCDKTHTCPPCPAPEFEGGPSVFLFPPKPKDTLMISRTPEVTCVVVDVSHEDPEVKFNWYVDGVEVHNAKTKPREEQYNSTYRVVSVLTVLHQDWLNGKEYKCKVSNKALPASIEKTISKAKGQPREPQVCTLPPSRDELTKNQVSLTCLVEGFYPSDIAVEWESNGQPENNYKTTPPVLDSDGSFFLYSDLTVDKSRWQQGNVFSCSVMHEALHNHYTQESLSLSPGK
# light: not shown
# B2: L15-03 (antibody, V domains shown)
# VH: QVQLVQSGAEVKKPGSSVKVSCKASGGTFSSYTISWVRQAPGQGLEWMGGIIPMFGTANYAQKFQGRVTITADESTSTAYMELSSLRSEDTAVYYCARGVALLATDFDYWGQGTLVTVSS
# VL: QSALTQPASVSGSPGQSITISCTGTSSDVGGYNYVSWYQQHPGKAPKLMIYEVSNRPSGVSNRFSGSKSGNTASLTISGLQAEDEADYYCQSWTHDNSVVFGGGTKLTVL
# B3: L15-08 (antibody, V domains shown)
# VH: QVQLVESGGGLVKPGGSLRLSCAASGFTFSDYYMSWIRQAPGKGLEWVSDISVSSSYTNYADSVKGRFTISRDNAKNSLYLQMNSLRAEDTAVYYCARLGGYRSFFSTDDGDSLDYWGQGTLVTVSS
# VL: not shown
# B4: L15-07 (antibody, V domains shown)
# VH: QVQLVQSGAEVKKPGSSVKVSCKASGGTFSTYAISWVRQAPGQGLEWMGGITPMFGTPNYAQKFQGRVTITADESTSTAYMELSSLRSEDTAVYYCARGDWYDYHFDYWGQGTLVTVSS
# VL: QSALTQPASVSGSPGQSITISCTGTSSDVGGYNYVSWYQQHPGKAPKLMIYEVSNRPSGVSNRFSGSKSGNTASLTISGLQAEDEADYYCQSYANRDNFVVFGGGTKLTVL
# B5: 153-L06C (bispecific antibody)
# chain 1: not shown
# chain 2: EPKSCDKTHTCPPCPAPEFEGGPSVFLFPPKPKDTLMISRTPEVTCVVVDVSHEDPEVKFNWYVDGVEVHNAKTKPREEQYNSTYRVVSVLTVLHQDWLNGKEYKCKVSNKALPASIEKTISKAKGQPREPQVCTLPPSRDELTKNQVSLTCLVEGFYPSDIAVEWESNGQPENNYKTTPPVLDSDGSFFLYSDLTVDKSRWQQGNVFSCSVMHEALHNHYTQESLSLSPGK
# B6: L15-06 (antibody, V domains shown)
# VH: EVQLLESGGGLVQPGGSLRLSCAASGFTFSSYYMSWVRQAPGKGLEWVADISVSGSYTNYADSVKGRFTISRDNSKNTLYLQMNSLRAEDTAVYYCARIGSYRSFFSTDDGDSLDYWGQGTLVTVSS
# VL: not shown
# How the values were obtained:
# Test in all cases: FACS binding to CHO cells
# [1] = target: T1, cynomolgus LRRC15 (cynomolgus, UniProt G7NYR2 22-581)
# T1 chain: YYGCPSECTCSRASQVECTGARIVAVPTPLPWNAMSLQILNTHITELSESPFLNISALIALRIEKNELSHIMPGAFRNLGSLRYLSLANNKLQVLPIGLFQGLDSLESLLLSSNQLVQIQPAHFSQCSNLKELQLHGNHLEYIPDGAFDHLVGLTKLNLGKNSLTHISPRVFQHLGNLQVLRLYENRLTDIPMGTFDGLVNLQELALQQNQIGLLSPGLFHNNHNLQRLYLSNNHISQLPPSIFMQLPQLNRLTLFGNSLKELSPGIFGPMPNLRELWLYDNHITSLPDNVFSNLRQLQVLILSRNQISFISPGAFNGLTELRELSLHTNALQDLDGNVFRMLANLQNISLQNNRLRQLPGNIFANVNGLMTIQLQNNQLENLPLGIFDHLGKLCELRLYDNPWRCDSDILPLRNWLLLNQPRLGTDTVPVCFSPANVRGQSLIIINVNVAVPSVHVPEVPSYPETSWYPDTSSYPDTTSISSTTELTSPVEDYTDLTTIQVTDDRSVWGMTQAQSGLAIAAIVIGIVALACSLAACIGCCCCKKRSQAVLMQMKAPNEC
# [2] = target: T2, human LRRC15 (leucine-rich repeat containing protein 15) (human, UniProt Q8TF66 22-581)
# T2 chain: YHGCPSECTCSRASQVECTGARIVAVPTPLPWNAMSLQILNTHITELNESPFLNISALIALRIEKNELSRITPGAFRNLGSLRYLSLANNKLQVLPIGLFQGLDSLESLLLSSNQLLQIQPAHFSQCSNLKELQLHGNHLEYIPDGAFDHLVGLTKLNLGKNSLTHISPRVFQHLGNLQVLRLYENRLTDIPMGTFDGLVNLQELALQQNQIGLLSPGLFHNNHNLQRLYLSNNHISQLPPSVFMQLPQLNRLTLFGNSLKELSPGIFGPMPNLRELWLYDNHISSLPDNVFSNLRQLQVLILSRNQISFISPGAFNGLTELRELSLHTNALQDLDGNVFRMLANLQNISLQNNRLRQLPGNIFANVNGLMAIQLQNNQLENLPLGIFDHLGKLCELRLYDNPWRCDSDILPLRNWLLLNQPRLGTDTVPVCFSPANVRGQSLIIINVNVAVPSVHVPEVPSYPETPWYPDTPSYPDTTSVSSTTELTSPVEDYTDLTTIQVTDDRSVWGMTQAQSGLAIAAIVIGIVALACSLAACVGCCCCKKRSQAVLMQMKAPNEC
# [3] = target: T1, cynomolgus LRRC15
# [4] = target: T2, human LRRC15 (leucine-rich repeat …)
binder,measurement,setting,value
B1,EC50,[1],0.627 nM
same,EC50,[2],0.488 nM
B2,EC50,[3],0.165 nM
same,EC50,[4],0.285 nM
B3,EC50,[3],0.19 nM
same,EC50,[4],0.633 nM
B4,EC50,[3],0.277 nM
same,EC50,[4],0.259 nM
B5,EC50,[1],1.48 nM
same,EC50,[2],1.15 nM
B6,EC50,[3],0.239 nM
same,EC50,[4],0.376 nM

# From patent publication US20250051444A1 (published 2025)
